The nanobody polyreactivity screen of Harvey et al. (2022)

Assay: yeast display, Sf9 membrane polyspecificity reagent, FACS + sequencing; frameworks hold sequencing errors
How it was run: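 Genes from sorted yeast were amplified by colony PCR, read by MiSeq 2 × 250 sequencing and filtered on CDR length. These cells carried a synthetic nanobody library in Saccharomyces cerevisiae BJ5465 and were sorted by FACS into low and high (top ~1%) gates on anti-HA and streptavidin fluorescence. Polyreactivity is labelled according to the gate of origin.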

| Sequence | polyreactivity (PSR sort gate) |
| --- | --- |
| QVQLVESGGGLVQAGGSLRLSCAASGNTFSYYAMGWYRQAPGKEREFVAAIRKSGASTYYADSVKGRFTISRDNAKNTVYLQMNSLKPEDTAVYYCAADGQVSYALGFDYWGQGTQVTVSS | high polyreactivity |
| QVQLVESGGGLVQAGGSLRLSCAASGSIFADYAMGWYRQAPGKERELVAAISYNGDSTYYADSVKGRFTISRDNAKTTVYLQMNSLKPEDTAVYNCAADGAYGGYDYWGQGTQVTVSS | low polyreactivity |
| QVQLVESGGGLVQAGGSLRLSCAASGIIFWSSVMGWYRQAPGKERELVAAITFSGGSTYYADSVKGRFTISRDNAKNPVYLQMNSLKPEDTAVYYCAARYKLVRRYDYWGQGTQVTVSS | low polyreactivity |
| QVQLVESGGGLVQAGGSLRLSCAASGIIFYSSAMGWYRTAPGKERELVAAISWGGRTYYADSVKGRFTISRDNAKNTVYLQMNSLKPEDTAVYYCLNGRYWRRYDYWGQGTQVTVSS | high polyreactivity |
| QVQLVESGGGLVQAGGSLRLSCAASGFTFRYYAMGWYRQAPGKERELVASISGTGGRTYADSVKGRFTISRDNAKNTVYLQMNSLKPEDTAVYYCAAWSYAYYYRLRYVSHDYWGQGTQVTVSS | high polyreactivity |
| QVQLVESGGGLLQAGGSLRLSCAASGTIFAYYAMGWYRPAPEKERELVARITYSTDRTYYADSVKGRFTISRDNAKNTVYLQMNRLKPEDTAVYYCAVETWWGFKRYKFDYWGLGTQVTVSS | low polyreactivity |
| QVQLVESGGGLVQAGGSLRLSCAASGFTFLQYAMGWYRQAPGKERELVATISSGGSTYYADSVKGRFTISRDNAKNTVYLQMNSLTPEDTAVYYCNAEEHFHTYVLHFRPYYVRHDYWGKGTQVTVSS | low polyreactivity |
| QVQLVESGGGVVQAGGSLRLSCAASGSTFDVYAMGWYRQAPGKERELVAAITSGGTTNYADSVKGRFTNSRDNAKNTVYLQMNSLKPEDTAVYYCAADSPWGGGYFVLYNYWGQGTQVTVSS | low polyreactivity |
| QVQLVESRGGLVQVGGSLRLSCAASGRTFGRYAMGWYRQAPGNERELVAAINSVARTNYADSVKGRFTISRDNAKNTVYLQMNSLKPEDSAVYYCAARRRGSVGVGYAYPYNYWGQGTQVTVSS | high polyreactivity |
| QVQLVESGGGLVQAGGSLRLSCAASGGISSSNAMGGYRQAPGKERELVAGINSRGGSTYADSVKGRFTISRDNAKNTVYLQMKSLKPEDTAVYYCAAAPTYKWRRKNYDYWGQGTQVTVSS | high polyreactivity |
| QVQLVESGGGLVQAGGSLRLSCAASGRIFPAYTMGWYRQAPGKERELVAAITWSGGSTYYADSVKGRFTISRDNAKNTVYLQMNSLKPEDTAVYYCAADKLYWYYGTEYGYWGQGTQVTVSS | low polyreactivity |
| QVQLVESGGGLDQAGGSLRLSCAASGSIFNYKAMGWYRQAPGKEREMVAGISYHGDSTYADSVKGPFTISRDNAKNTVYLQMKSLKPEDTAVYYCAALGPDDWLWAGDYWGQGTQVTVSS | low polyreactivity |
| QVQLVESGGGLVQAGGSLRLSCASSGSTLRSYAMGWYRQAPGKERELVAAIDWDGGRTYYADSVKGRFTISRDNAKNTVYIQMNSLKPEDTAVYYCNTSAGWSNGKDEGDFYSGFDYWVQGTQVTVSS | low polyreactivity |
| QVQLVESGGGLVQAGGSLRLSCAASGRTFSGNTMGWYRQAPGKERELVAAITGRGGSTYYADSVKGRFTISRDNAKNTVYLQMNSLKPEDTAVYYCAALRYTFAGRFDYWGQGTQVTVSS | high polyreactivity |
| QVQLVESGGGLVQAGGSLRLSCAASGSTFAWYAMGWYRQAPGKGEFVAGISDSGGRTYYADSVKGRFTISRDNAKNTVYLQMNSLKPEDTAVYYCAAGDHYYRYAYRRGYWGQGTQVTVSS | low polyreactivity |
| QVQLVESGGGLVQAGGSLRLSCAASGSIFRRNAMGWYRQAPGKERELVAGISGGGSTYYADSVKGRFTISRDNAKNTVYLQMNSLKPEDTAVYFCATDKHFRWAGFDYWGQGTQVTVSS | low polyreactivity |

| Sequence | polyreactivity (PSR sort gate) |
| --- | --- |
| QVQLVESGGGLVQAGGSLRLSCAASGSTFPGYAMGWYRQAPGKERELVAAGGSTYYADSVKGRFTISRDNAKNTVYFQMNSLKPEDTAGYYCAATWGSVQKGTYYYWGQGTQVTVSS | low polyreactivity |
| QVQLVESGGGLVQAGGSLRLSCADSGSTFDSYDMGWYRQAPGKERELVAGISYSSDRTYYADSVKGRFTISRDNAKNTVYLQMNSLKPEDTAVYYCAKDHTGTVQYPLDYWGQGTQVTVSS | low polyreactivity |
| QVQLVESGGGLVQAGGSLRLSCAASGRIFQGNAMGWYRQAPGKERELVAAIDWSGGGSTYADSVKGRFTISRDNAKNTVYLQMNSLKPEDTAVYYCARDVVWGEDYWGQGTQVTVSS | low polyreactivity |
| QVHLVESGGGLVQAAGSLRLSCAASVSTIPPNAMGWDRQAPGKEREFVAAISSVGSSYYADSVKGRFTISRDNAKKTFYLQMNSLKPEDTAVYYCAKGSWYWVEPYDYWGLGTQVTVSS | high polyreactivity |
| QVQHVDSGGGLVQEGGSLRLSCAASGRIFTYNAMGWYRQAPGKERELVAAISRRGGTTYYADSVKGRFTISRDNAKNTVYLQMNSLKPEDTAVYYCAAVVYTRGVTSRPVSRYDYWGQGTQVTVSS | high polyreactivity |
| QVHLEESGGGLVQAGGSLRLSCAASGRTFRHNAMGWYRQAPGKERELVAAISSSGTNTHYADSVKGRFTISRDNAKNTVYLQMNSLKPEDTAVYYCAADRWGARRKQYHENGYWGQGTQVTVSS | high polyreactivity |
| QVQLVESGGGLVQAGGSLRLSCAASGFTFVYYVMGWYRQAPGKERELVAAINAGGGSTYYADSVKGRFTISRDNAKNTVYLQMNSLKPEDTAVYYCNARVRVRLGRKWSSYYYWGQGTQVTVSS | high polyreactivity |
| QVQLVESGGGLVQAGGSLRLSCAASGSTFYRYAMGWYRQAPGKERELVAAISSDGTTYYADSVKGRFTISRDNAKNTVYLQMISLKPEDTAVYDCAAEGIRRSQRFNYWGQGTQVTVSS | high polyreactivity |
| QVQLQESGGGLVQEGGSLRLTCAASGNISPPADMGWYRQAPGKERELVASIGTGGTTNYADSVKGRFTISRDNAKNTVYLQMNSLKPDDTAVYYCAAVRYEYNPYDYWGQGTQVSVSS | low polyreactivity |
| QVQLVESGGGLVQAGGSLRLSCAASGRIFGVYAMGCYRQAPGKDRELVAAISSTGGSTYYADSVKGRFTISRDNAKNTVYLQMNSMKPEDTAVYYCEYDYWGQGTQVTVSS | low polyreactivity |
| QVQLVESGGGLVQAGGSLRLSCAASGRTFRTYTMGWYRQAPGKEREFVAAITSSGASTYYADSVKGRFTISRDNAKNTVYLQKNSLKPEDTAFYYCAARYGRRLVWVPALLYDYWGQGTQVTVSS | high polyreactivity |
| QVQLVESGGGLVQAGGSLRLSCAASGFTFDYYAMGWYRQAPGKERELVAAISVSGGITYYADSVKGRFTISRDNAKNTVYLQMNSLKPEDTAVYYCNAVFYYPYPADRRDYWGQGTQVTVSS | high polyreactivity |
| QVQLVESGGGLVQAGGSLRLSCAASGRTFGSYAMGWYRQAPGKEREFVASISRRGGSTYYADSVKVRFTISRDNAKNTVYLQINSLKPEDTAVYYCAAGVPASWFDYWGQGTQVTVSS | high polyreactivity |
| QVQLVESGGGLVQAGGSLRLSCAASGFTNAMGWYRQAPGKERELVAAISYSGDSTNYADSVKGRFTISRDNAKNTVYLQMKSLKPEDSAVYYCNASSPYDYDWGQGTQVTVSS | low polyreactivity |
| QVQLVESGGGLVQAGGSLRLSCAASGSTFVTYTMGWYRQAPGKEREFVATISRSGCSTYYADSVKGRFTISRDNAKNTVYLQMNSLKPEDTAVYYCAAVRLVISKYWYIPYDYWGQGTQVTVSS | low polyreactivity |
| QVQLVESGGGLVQAGGSLRLSCAASGSTFKRNAMGWYRPATGKERELVATITRRGGSTYADSVKGRFTISRDNAKNTVYLQMNSLKPEDTAVYYCNADSRPLSTYYYWGQGTQVTVSS | low polyreactivity |
